# Experimental data as given in the DeepSol protein solubility set.
# Experiment: soluble on expression in E. coli; label from the status in PepcDB or PDB records
row,Sequence,soluble on expression in E. coli
1,MAHHHHHHMSPLDACREQYEKDLANQTHCCMLEHVEEENRAANRKVFVRLLRYQQDINTRGTLPFEPDPTDAQKKSKGGNSAAPAYPENLTIRDPRQLKQILPIPDIHKVSDCDLIYRFLIARRMDVDLATNDILSYIGFREKYSLDTILWDREVEAVFNGLDGEELVQQVMGEMKKGATPAPKVKITRPLLQAGWAAWYCGVDKRGHVIFYQRPNPKELAMLEKRWPYIEGQYDCRNPEFHSVTPPYSNLLSRVYLREVEKGRRISRLLNYNQQYIIREGLHVQTTVKPTSTDTFMDNGGGATCLVDVGSIKLSHLTSSKCKKAFKLFRVLSLTGQSFYPENMSRMIIINGGFVFNMLFKLVRPWLDPQTQKKIVLLSATNRATLDELSSDSNLMSQSHETNDSEESDDDGTPVVGTDSERAKYALRDALAEYIHEDFIPSWYGGRLPVVDSPLFYGASPPKSLAENPQFAAACERLRARVVPQLLPDAFIFANAKEREGVGQEEWEAFCSMTERTLFRKQASTQCSSHS,not soluble
2,MAHHHHHHMSPVIALHEDLQKRLEEYRSTRGFSPVKWIEQKCAALNEYMASHGLKVCVTSVSGGIDSAVVLALCSRAMRMPNSPIVRNVGICQPICSSAWALARGRENIQSCGALEVIVDQTELYKQLSRIVETAVGIDGQNFARGQLRSYMRTPVAYYVAQLYSQEGNAAIVMGTGNMDEDGYLAYFCKAGDGVVDVQLISDLHKSEVFRVARELGVPANTLQASPSADLWEGQTDEEELGFPYDFVELYTGWCLQLSDEERQSFLHSLSSDARQQYEKYKDACENTHRRNAHKLRGPINL,soluble
3,MAHHHHHHMSRNVAAEEEWEDVDAPNEEDEEEEDTTINNSDVMMRYKKAALWCNETLQLLLDATKPGAKVHELCKLGDETVAKKLKTMFKGTEKGLAFPTCISVNSCVAHNSPSADDEVASQEIQLGDVVHIDLGIHVDGYCAQVAHTVQVTENNELAADDDASKVISATYGILNTAMRKMRPGVSVYEVTEVIEKAAAHYGVTPVDGVLSHMLKRYIVDSFRCVPQRKVAEHLVHDYTLEAGQVWTLDIVMSSGKGKLKERDVRPTVYKVALDSNYTMKMESARELQREIEAKYQTFPFALRNLETKRARLGLSEMLKHGAVVPYPVLYERDGEVVGHFKITLLITAKKIEPVTGLKPQKAPTLPAYTDELLLEASKLPLTLEKKRKN,not soluble
4,MAHHHHHHMSRTLTTTQPSVASSPASSSSGSTHQRPSADQLAETVHQMDEENALEFVSIDATSRDQVFHFLHDHPDATAVVNAVGLLTRNYEDARQVNGDVMTNIAAGVFHPKLAQSVQKVVYVSAEPYNLYSRRILGSKHLLKGYFHGKRIGEKAVLENLGNKGVVLRPSFIYGTRHVLVASAMNPDAVSTLSLPLGWIGLPLDKLLTAIGGGKLLMPPVCVDVVAEAAVRACAWANQPGKDIHGICDVYRMRDICNAVDPSLHEDRNGTVTASTASKEASTVKNDR,not soluble
5,MAHHHHHHMSSASIVALSLSLSFSLGLLRSLGSARHIRYGHPHTNTSAYGGRHPRMQVMAAAARTYRHIVARELSTNFRAVASIVEAPFPTVLHPKAILVKNKYLGVNASDINFTAGIYQPDVRPPFACGFEAVGEVVDVGSGVKDLKAGAAVVTQSYGAFAEYQVVARRHAKPIPRVAREYLPLDLSATTASIALEHVLKPQPGERAVVTAAAGGTGQFAVQLLKHVYGCSVVGTCSSPSKEVFLTNTLKCDGVVNYKAEGGDTAAAFLRCYPRGVNIAYESVGGDLLEAVIQSLAPRGRILSLGCVSTYQCGSIEAACPSRKPLPLQLLAKSASLSTFFLPHFAKYGQLHFDRLCALHEQGLVQCCIDPTTFEGLEGVYDAIDWMFEQKNCGKVMVEL,not soluble
6,MAHHHHHHMSSSSSALDVPLVEVICSYPTREGLCAECPALLLLVYEHVVAELQAGRRAVDVFRGTSRQDHLSELLAVRSLSELFERLYPLSQSCILDESTASSQFWRQARVTLEAAWAAPHDAKGRALLTQVRGQPRFHFCGPRDVETPGEGYPLHPVSLERALATSKRFLRTAMTCALDGSTDALAGRQPELRAVLQLAHLVPLTPSTGAPPRKEVTPEGLSFCMVSLQQRWWILVNAALERVLLLTRAAVNGNGNTSGSSGVTKPLLWQLLAVLSVLDTTQYVFAFPERQQDLAAHHLLARLSEVGLVYPLLSNDRKCFVLSPDFLHAIHWHASAPLSLTFNHHLLRSASGVSGAGIGDLRREDTDTIITETNFRLFAYTNDADLLNILNQFAELEEIVNGNLHCYRVTRASFAAAMRKGITAAQVLRFLSLRAHPSMLRRHGEREENGDTASPSSAGGASSSFTFSASPRRGAVAGTCGSTTSIDAVSTLVVPQSFCDQMRMWESECRRVVFEHHVVLLRNMSTQQQKAVTAYLTDAGEVDAVVHAERGYMVIREEVFERLVAPLLG,not soluble
7,MAHHHHHHMSSSVKDILLEGSTCSTDMKLNDFLRSKLGGRGVVDTNEKVAMEMFVQDPETFIQNERLLRIITASPSYQELERELDEMKILLEAINKLHDEDVFSLEQWRGYEGKDTVTPLARGKINGVLTHVLREERRWAEERAVREKQVELTLTTTIEDVLFRGRVRVKDMKLNDFITMEMEGRGILRANRNVLLKEFFKDPTRYIHDAGVLNEIQASDAYLMAERAVRDEMDMEKDLRKLYKNGVSNLFGWSVASAEIRASVRDITKSFLDAALEEARKPTTTIAPIKMEGLYESVYNARWHHVVEVPGGEGTGMEVKKGRPPQQWTYKKVGYCLERDDGAEQYGAARLRLMVLASDKGRAVLVGGD,not soluble
8,MAHHHHHHMSSSVQNHQQTLLQARTHVAARDTTAVAILGAKAGSNGSSQSFRPAAQCLEHTQSSFNQTDISQRPPFIASEAATVSLLRRMEVLDNGRAGSTSDNAAANVVPSHQSVQRQRVTAHTLNKTTLANNDVTGEAPKPPSMAESTLKAGAQRRRIVKSNRNAVASRGPSESLKKCGPAVNVNDDGHRNDSAMAMNVPTQITVAARGGARGRVFHSNPFVTRNGKRFSAQNARRGISTATLSPPHTAITVSDDYSADFSVHDAFDVLSPMTPANPTYQKTLQVQQQQQWHSGSWIYDLNAGANTDSFTDDGSPIEFVVEDFELDDTVLGGTKHNDFGGQASKGGPDRFSTAAASNPDRLRQQNHARWAASRGPTRGATLASGTTATQQAGGARHLTTKSTMGSDPAGPDSPSGVLKERARLAKGVKLHNGPPMIKIPPLALDVINANRKTGKASYKVSHPKPGVVVPDIESSSTECSDMPNNSSLQGNFEALGVKVSNSPLGGRGSIEGRGNDKRVGGVHNGSLLSGSAVDGHRAGAAGSSAYKGSLQNCGRHGMLSMPFDGTSNDSQVHEASPSRNAREGFRGNSGGFGMHGGPFGSVQRQRWLVEADKHSSGESRPPMTNARKKAKCCVVM,not soluble
9,MAHHHHHHMSSTNPSGCAGLVAASVTTAASTGTTAAATLAARSPTPPSVPASNSNNSGPGAAVASAPARWRIPSFRPQEYLRGYLFGGVGMGVPELQQYVGKVEPMIREMLEHTQQVHSIHSLRSHFQKSDEPGDEEVVLRWPSHLLQFMEFYNTTRALEDPENQDAGVKEAYLGLMRRLYYTEPRRRDCIPTKYLDPRSLLLVRMWWSMDAAQRKQWPLSLMDHKALNVIQIKDRYLCSYVMTAMQAKQYLMRLVARPEMRAMIDQWRRERNDGSTGAGSPQRSKL,soluble
10,MAHHHHHHMSTKLEQENCKLLENIEVISTWSSNNDSNMESFVEPSELDIKDDNEKCLNILNDNLIYDFEKEEDEKKKKNKKNEKSSSNIDLEYDTMKKYIKCIIHNKEKEEFYSFMKYICDSDLFLTFVQLFLDLIKNKDSNLNPHDYLINFFQINIEEENNTNSIKRKNLIKENNFYKKQNEELKKQINIIQVEIMDMKKKNMCNYITNFFFKDNKQEYDASKIFQKVNLYYENIRIEPPFYFTKDTFNLFINYLSDNKRNYIYNIITDMYNIYETNHTLFITKFYKKLTNFIEFYRSFDK,not soluble
11,MAHHHHHHMSTTQAALFPFRHHWRVPVTLAINTTVPNGAPSATESGGCTQPQSPGEQAAAHAAVTPDGIDAVVTDFVFAQSGRRLLLVRGDSPPDLRLCLSEDSPNGPLSGALGAGIAVEASPLQQAHRALCTGAELIHHVSTLRDQQLEGHRPCDGDTRASALELCVAGYPQGHPLDRTWGATSAAYSAPAEAAATGSVATRDSSVAAARQRSLEFLRAFEEDFDAAEHAFTAAVRVAKRRACVVSAEKRSSDISVDDGTPSAASGEPRERARHLCTPQAVMPELKEPCRTLGRLGAVRRLWTSSSIYAPYVRAACIHRMLHEKVLLRSPSEPEHRRIRSGSFHGGAAAPVIVTQMITTAQGFTGYVDEIQRGLRAWAATAGGGEQPEPAGDGPQQQHPVHAAAPTALTPPISVIPGVLLPHPTDVHVLLRSLYYTKVIPSARMQKALEVYASELMIAWRQLADEPPRRKREPALQDDTFLQALTESNGSAATLEVSEDRVAQVEARVREVRRCASCRLTSVWLSETVDLLHDLQRHGQARLHLFTMFNDKVGVRVAQLLAAYDAPRGASAEQ,not soluble
12,MAHHHHHHMTGWRQIVRCSICHLNRCAYPVTPALTDLKHLKHMWTLHGEAAPTADKQCLLLALAAEAGEQLAELNSRQAAAQAKAKEAQLAIAKHLGMLEMAVEASSYKIVDSTTPVNADSSANTAKLSLKIARGNNAGCSLTKAGEGNPFADDPLNEQNILNLKLTAATDVVKSLKETAISIRSASSNCPSDSTGKTGIKEALGSCNLGGSAEYEFTTAAATTGNAQSSVPVFKEESTTTNCGEVSGLSAEAMSPAQKLAKAICEAIKAKAGEGKTLRTATGETLSNRKTIQTFLRNCVPEFQKKN,not soluble
13,MAHHHHHHMTSQTTTAVFSSDLQTFIVTKYDPLLSIVKELNDKLQNSEKDKYHLEKRIIKLEKQMVLLLEKLEVSDILFDNEEKEKKEEPRKNQKIESEENLLAPWLFSCQLGTPLSSLQVLLEFNVNNTIELNVKLWKREEDMWINVLEDISSNYNNYLPDSLSLLDLRKAARKCLLNICMNEILIVLRNVPGKSQALYNTTTMTLVAILASAIYEAWKRIELTDPVSLGRIVLVLDGMNCINKKREDVGSRLRAGNKKLKIEPLN,not soluble
14,MAHHHHHHMTSTLTNSNRINIPAVCRLRERNTNKTVGSGVLVAQGLLLTSATAIPTQSRATHIVATFFEGTKKSAVDVQLQPQRYYFASRYPPEMDYCLISCEEAPLLNVTPVHMALTGKGWAPVEEGDVVLIVEHPIGDVAGTAAVPLDGKATFSSTLSATGDGDFDSVRAPYTEQKRFEEVLRCRGNVSFLKSNGSWRTAGCPAFNEHGQLVGLQSQSRADGEGVVNRILSLISIVKHLFANVQLPHLPQEDVTFEDVWDTWYVTNDITRILAILANFKGKSMAQQVTWRLCELTAKPQLVKSIASNGGIEVILQNLSLFSSDEKLSESGLRALWNVSIGEEAHLATIIKKEGVQTILDVVESFPANETVLEFGAVLLHNIAGCRAAPNFSEAHGARALKALYPGFQQFRESVVLQKFALSFFATLARLNEDFARDLVQQHVIEHITHLVEEKPKQIFLMEIVVGFVAELAQYPQTVELMCSNTPQYAAASMSYLIDLLIHIILEYKDLDSLLVSGNRALWGLGNVPTCRGIILENPRGIDALRISLPPLIASTHR,soluble
15,MAHHHHHHMTSTTQPKWTRLPIRTRPHRNPLAENSDNHPDCPAELQEQCTTLFPGMDNPVITLVDVGCAFGGMLFSLAPDFPDMCMLGLEIRPKVVEFAQNKVMKLREGAATDGTSHHYRNVWFEQLNVMKFGSNCFNKGQLQALFFCYPDPHWKRKNVRRRIISPGLVQEYAYWLKVGGFLFTVSDVEELERWMVTCLDGCPLFRQLSQEELAGNEMVRKMLDYAANSSEDAQRTTRKGLQKHYAVHVRVP,not soluble
